Test results: patent US7838288B2, “Modulators of odorant receptors” (Duke University, priority 2004, dated 2010)

What was measured:
[1] = test system: S6; assay: Living-cell staining of cell-surface S6; assay type: cell-based, mouse; conditions: accessory protein co-transfected in 293T cells
Experimental: 293T cells were maintained in minimal essential medium containing 10% fetal bovine serum (M10). Lipofectamine 2000 (Invitrogen) was used for transfection. In live-cell staining, 16 hours after transfection, cells were incubated in M10 containing anti rhodopsin antibody, 4D2 (see, e.g., Laird, D. W., and Molday, R. S. (1988) Invest Opthalmol V is Sci 29, 419-428; herein incorporated by reference in its entirety) and 15 mM NaN3 at 4 degrees C. for 1 hour. After washing, cells were incubated with Cy3-conjugated anti mouse IgG (Jackson Immunologicals), washed and mounted. For FACS analysis, 4D2 and PE-conjugated anti mouse IgG (Jackson Immunologicals) were used to monitor the Rho tagged receptor expression. Anti HA rabbit antibodies (Sigma) and Alexa 488 conjugated anti rabbit IgG (Molecular Probes) was used to stain the HA-β2 adrenergic receptor. To establish the Hana3a cells, 1 ug/ml of puromycin was used for selection. 96 colonies were picked and assayed using luciferase assay using OREG.

[2] = molecular target: T1, mouse odorant receptor OREG (Mus musculus, UniProt Q920P2); assay: CRE-luciferase reporter gene assay, OREG; assay type: cell-based; conditions: 293T cells; compared to OR alone or control pCI
T1 construct: expressed in transfected cells; host or cells: 293T cells (with or without co-transfected REEP1/RTP1/RTP2) and Hana3A cells (293T stably expressing mouse REEP1, RTP1, RTP2, Galpha-olf)
T1 sequence (Q920P2 1-313): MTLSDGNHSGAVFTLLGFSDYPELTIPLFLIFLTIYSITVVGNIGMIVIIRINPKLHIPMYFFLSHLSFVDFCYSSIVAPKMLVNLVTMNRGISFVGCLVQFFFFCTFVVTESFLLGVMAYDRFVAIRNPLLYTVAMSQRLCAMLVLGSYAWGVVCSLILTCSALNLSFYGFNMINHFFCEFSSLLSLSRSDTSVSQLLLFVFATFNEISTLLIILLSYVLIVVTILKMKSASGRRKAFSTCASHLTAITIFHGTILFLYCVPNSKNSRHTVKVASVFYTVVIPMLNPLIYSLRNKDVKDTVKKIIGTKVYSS
Method in brief: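 293T-derived cells stably expressing REEP1, RTP1, RTP2 and Gαolf, transfected with OREG, CRE-luciferase and SV40-Renilla control. Odorant applied in CD293 medium for 10 h or 4 h at 37 degrees C. Output is firefly luminescence minus no-odorant value, normalized to Renilla.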

B1: RTP1-A1: RTP1 variant from deleting portions of RTP1-A; murine SEQ ID NO: 46, human SEQ ID NO: 47 (protein, listed as Mus musculus)
chain: MCKSVTTGEWKKVFYEKMEEVKPADSWDFIIDPNLKHNVLAPGWKQYLELHASGRFHCSWCWHTWQSPHVVILFHMYLDKAQRAGSVRMRVFKQLCYECGTARLDESSMLEENIESLVDNLITSLREQCYGERGGHYRIHVASRQDNRRHRGEFCEACQEGIVHWKPSEKLLEEEATTYTFSRAPSPTKPQAETGSGCNFCSIPWCLFWATVLMLIIYLQFSFRTSV
[1]
  cell-surface expression of S6: Increased cell-surface staining
[2]
  OREG activity by luciferase, accessory protein co-expressed: Increased enhancement
